Tests used:
POTH1 [1] = assay: In vitro binding assay (immunoprecipitation) with POTH1; set-up: species or system Solanum tuberosum; settings: in vitro transcription/translation, anti-GAD
Protocol: In vitro binding experiments were performed as described by Ni et al., “PIF3, a Phytochrome-Interacting Factor Necessary for Normal Photoinduced Signal Transduction, is a Novel Basic Helix-Loop-Helix Protein,” Cell 95:657-667 (1998), which is hereby incorporated by reference in its entirety. The full-length sequence for POTH1 was cloned into a pET17b/GAD fusion cassette and transcribed under the control of the T7 promoter. […] Each 50 μl TnT reaction contained 2.0 μg of template plasmid DNA and 20 μmol (20 μCi) of labeled ^35S-methionine. The POTH1:GAD/BEL complex was immunoprecipitated with anti-GAD antibodies (Santa Cruz Biotechnology, Calif.). The proteins from the pellet (one-half the fraction) and for the prey (one-fourth of the reaction volume) were resolved on a 10% SDS-PAGE gel and visualized by autoradiography.

ga20ox1 promoter = assay: Transcription assay, GUS reporter driven by ga20ox1 promoter in tobacco protoplasts; assay type: cell-based, potato
Excerpt: The cauliflower mosaic virus (CaMV) 35S promoter in pBI221 (Clontech, Palo Alto, Calif.) was replaced by an enhancer fragment (-832 to -50) of the 35S promoter plus 980 bp of the ga20ox1 promoter to generate the pGAOP::β-glucuronidase (GUS) reporter construct. With this construct, the reporter GUS transcription level is augmented but its transcription may still be affected by the ga20ox1 promoter. A CaMV 35S promoter-driven luciferase (LUC) construct 35S-LUC (obtained from Dr. Takahashi, Dept. of Biological Sciences, Graduate School of Science, Univ. of Tokyo, Japan) was used as an internal control. Effector constructs were also generated by using pBI221 vector as a backbone, with the GUS gene replaced by the full-length cDNAs of either StBEL-05 or POTH1, downstream of the CaMV 35S promoter. Truncated cDNAs that encode the N-terminal protein-binding domains of StBEL-05 or POTH1 were used to generate the dominant negative constructs, StBEL5ΔC295 and POTH1ΔC122, respectively. The reporter construct with the mutated promoter was generated by site-directed PCR mutagenesis with oligos 5′-CTATTTGACTTC*ACACGGTTATTT-3′ (SEQ ID NO:23) and 5′-AAATAACCGTGTG*AAGTCAAATAG-3′ (SEQ ID NO:24).
Fully expanded leaves from three- to four-week-old tobacco plants were excised and placed in K3 basal media (Kao et al., “Nutritional Requirements for Growth of Vicia hajastana Cells and Protoplasts at a Very Low Density in Liquid Media,” Planta 126:105-110 (1975), which is hereby incorporated by reference in its entirety) supplemented with 0.4 M sucrose, 0.25% (w-v) cellulases (Karlan Research Products, Santa Rosa, CA), and 0.05% (w-v) macerases (Calbiochem, La Jolla, Calif.) and incubated for overnight at 28° C. After incubation, the liberated protoplasts were filtered through sterile cheesecloth into a Babcock bottle, and centrifuged for 10 minutes at 1000 rpm. Protoplasts were collected from the bottleneck area and washed once in K3 media with 0.4 M sucrose and resuspended in K3 media containing 0.4 M glucose to a final concentration of 4×10^6 protoplasts per milliliter. […]
Luciferase assays were performed by injecting 100-μL luciferase substrate (Promega, Madison, Wis.) into 20 μL of extract and measuring the emitted photons for 15 seconds in a TD-20 luminometer (Turner Designs, Sunnyvale, Calif.). […] A fluorescence multiwell plate reader, Fluoroskan II (MTX labs, Vienna, Va.), was used to measure GUS activity at 365 nm (excitation) and 455 nm (emission). Each sample was measured three times for both LUC and GUS activity. Relative GUS-LUC activity was calculated by dividing the ratio of GUS activity to LUC activity from different effectors with the ratio from reporter plasmid alone. Relative activities calculated from three transfection replications were presented as a mean±SE.

POTH1 [2] = assay: Yeast two-hybrid interaction with POTH1; assay type: binding, Solanum tuberosum; settings: nutritional selection and lacZ activation, yeast AH109
Excerpt: The Matchmaker two-hybrid system (Clontech, Calif.) was used for the yeast two-hybrid screen. Yeast transformation and plasmid rescue into DH5-α E. coli cells were according to the manufacturer's instructions. Full-length POTH1 was cloned into the pBridge (Clontech, Calif.) vector and used as bait to screen the potato (S. tuberosum ‘Desireé’) stolon cDNA library in pAD-GAL4-2.1 (Stratagene, Calif.). Positive interactions were confirmed by cotransforming yeast strain AH109 with each purified pAD plasmid and pBridge: POTH1 and plating on -leucine/-tryptophan (transformation control) and -leucine/-tryptophan/-histidine/-adenine (selection) nutrient medium. Induction of the AH109 reporter gene, lacZ, was measured with a yeast β-galactosidase assay kit (Pierce Chemicals). β-galactosidase activity (FIG. 9B) was determined from a known density of yeast cells and calculated as 1000×OD420/time of color reaction (minutes)×volume of yeast culture (ml)×OD600.
The StBEL-05 deletion constructs were amplified by PCR, then cloned into the vector, pGAD, in-frame with the GAL4 activation domain. POTH1 deletion constructs were amplified by PCR, and cloned into pBridge (Clontech) in-frame with the GAL4 binding domain. Sequencing of selected cDNAs and constructs was performed at the Iowa State University DNA Facility. For deletion analysis, modified constructs of POTH1 were cloned into the pBridge vector for fusion with the DNA-binding domain of GAL4 (FIG. 10A). For StBEL-05, constructs were cloned into the pGAD vector for fusion with the activating domain of GAL4 (FIG. 10B). Deletion constructs were made from both the amino and carboxy termini. These mutants were then tested for interaction in the yeast two-hybrid system by cotransforming into yeast strain AH109 with the corresponding full-length partner (StBEL-05 in pGAL4 or POTH1 in pBridge). All constructs were sequenced to verify that they were in-frame. Positive interactions were verified for lacZ induction by using a β-galactosidase assay (Pierce Chemical Company). For POTH1, seven deletion constructs were tested (FIG. 10A). For the BEL TFs, a fusion construct of StBEL-05 (653 aa of StBEL-05 sequence) and nine deletion constructs were tested (FIG. 10B).

Sequence of POTH1 (as listed by the source): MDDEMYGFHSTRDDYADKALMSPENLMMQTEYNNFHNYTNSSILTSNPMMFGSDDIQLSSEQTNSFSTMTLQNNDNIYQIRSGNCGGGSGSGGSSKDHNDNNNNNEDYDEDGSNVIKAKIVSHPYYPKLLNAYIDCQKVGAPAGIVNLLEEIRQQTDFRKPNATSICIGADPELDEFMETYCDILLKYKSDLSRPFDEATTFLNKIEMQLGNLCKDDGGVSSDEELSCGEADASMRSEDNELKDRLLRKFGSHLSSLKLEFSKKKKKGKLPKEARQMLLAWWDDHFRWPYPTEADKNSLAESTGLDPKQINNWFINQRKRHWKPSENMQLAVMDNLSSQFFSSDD

B1: StBEL-05 protein from pGEM11Z (in vitro transcription/translation) (other)
chain: MYYQGTSDNTNIQADHQQRHNHGNSNNNNIQTLYLMNPNNYMQGYTTSDTQQQQQLLFLNSSPAASNALCHANIQHAPLQQQHFVGVPLPAVSLHDQINHHGLLQRMWNNQDQSQQVIVPSSTGVSATSCGGITTDLASQLAFQRPIPTPQHRQQQQQQGGLSLSLSPQLQQQISFNNNISSSSPRTNNVTIRGTLDGSSSNMVLGSKYLKAAQELLDEVVNIVGKSIKGDDQKKDNSMNKESMPLASDVNTNSSGGGESSSRQKNEVAVELTTAQRQELQMKKAKLLAMLEEVEQRYRQYHHQMQIIVLSFEQVAGIGSAKSYTQLALHAISKQFRCLKDAIAEQVKATSKSLGEEEGLGGKIEGSRLKFVDHHLRQQRALQQIGMMQPNAWRPQRGLPERAVSVLRAWLFEHFLHPYPKDSDKIMLAKQTGLTRSQVSNWFINARVRLWKPMVEEMYLEEVKNQEQNSTNTSGDNKNKETNISAPNEEKHPIITSSLLQDGITTTQAEISTSTISTSPTAGASLHHAHNFSFLGSFNMDNTTTTVDHIENNAKKQRNDMHKFSPSSILSSVDMEAKARESSNKGFTNPLMAAYAMGDFGRFDPHDQQMTANFHGNNGVSLTLGLPPSENLAMPVSQQNYLSNDLGSRSEMGSHYNRMGYENIDFQSGNKRFPTQLLPDFVTGNLGT
notes: 35S-methionine labelled prey; also called p11Z-5
For B1, the “pull-down by POTH1 in immunoprecipitation” value (POTH1 [1]) was “pulled down”, the “relative GUS-LUC activity of the pGAOP::GUS reporter construct” value (ga20ox1 promoter; co-transfected effector, reporter alone = 100%) was “decreased by more than half” and the “repression of promoter activity, reporter with point mutation in the binding site” value (ga20ox1 promoter; mutated ga20ox1 promoter) was “no detectable repression”. The “interaction with POTH1” value (POTH1 [2]) was “showed selective interaction”.

From patent publication US7265263B1, “Potato transcription factors, methods of use thereof, and a method for enhancing tuber development” (Iowa State University Research Foundation, Inc., priority 2002, dated 2007)
